Patent US20260250398A1 (ANTLERA THERAPEUTICS, published 2026)

T1: LRP6 (low-density lipoprotein receptor-related protein 6) (UniProt O75581 20-1370, limits assumed)
T1 sequence (looked up): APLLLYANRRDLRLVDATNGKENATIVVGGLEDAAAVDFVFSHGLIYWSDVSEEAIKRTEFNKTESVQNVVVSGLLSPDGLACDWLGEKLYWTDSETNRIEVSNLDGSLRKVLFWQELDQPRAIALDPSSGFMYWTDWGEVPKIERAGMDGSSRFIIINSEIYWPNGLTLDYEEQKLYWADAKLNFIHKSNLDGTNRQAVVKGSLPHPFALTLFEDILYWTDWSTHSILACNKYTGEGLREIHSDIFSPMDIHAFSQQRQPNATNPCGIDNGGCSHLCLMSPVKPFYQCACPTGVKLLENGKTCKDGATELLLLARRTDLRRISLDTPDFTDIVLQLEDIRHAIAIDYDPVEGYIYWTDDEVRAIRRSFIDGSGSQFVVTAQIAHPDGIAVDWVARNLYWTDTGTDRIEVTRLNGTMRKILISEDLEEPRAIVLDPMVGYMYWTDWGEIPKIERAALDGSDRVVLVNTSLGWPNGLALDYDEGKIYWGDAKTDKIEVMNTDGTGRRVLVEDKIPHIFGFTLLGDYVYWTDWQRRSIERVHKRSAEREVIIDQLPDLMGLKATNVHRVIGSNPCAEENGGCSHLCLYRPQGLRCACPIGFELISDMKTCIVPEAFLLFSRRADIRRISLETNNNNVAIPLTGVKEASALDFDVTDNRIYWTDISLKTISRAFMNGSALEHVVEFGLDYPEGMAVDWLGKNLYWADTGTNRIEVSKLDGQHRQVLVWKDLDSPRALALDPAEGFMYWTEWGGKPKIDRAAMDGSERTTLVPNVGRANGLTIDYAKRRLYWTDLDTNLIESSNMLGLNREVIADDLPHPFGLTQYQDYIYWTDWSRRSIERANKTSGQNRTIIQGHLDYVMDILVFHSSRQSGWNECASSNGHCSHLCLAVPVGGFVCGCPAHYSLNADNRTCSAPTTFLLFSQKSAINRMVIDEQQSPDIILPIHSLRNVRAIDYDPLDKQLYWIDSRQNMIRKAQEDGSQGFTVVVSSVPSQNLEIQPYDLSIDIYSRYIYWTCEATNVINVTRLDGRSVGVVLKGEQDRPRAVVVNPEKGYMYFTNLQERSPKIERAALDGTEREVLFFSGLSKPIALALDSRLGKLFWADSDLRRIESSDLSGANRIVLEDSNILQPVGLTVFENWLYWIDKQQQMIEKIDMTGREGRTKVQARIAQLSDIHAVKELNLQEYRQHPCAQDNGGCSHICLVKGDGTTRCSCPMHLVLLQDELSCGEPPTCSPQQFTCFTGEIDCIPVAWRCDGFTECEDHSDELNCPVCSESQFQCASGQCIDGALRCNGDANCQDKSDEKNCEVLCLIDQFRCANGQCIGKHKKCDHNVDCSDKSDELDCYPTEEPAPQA


target: T1, LRP6 (low-density lipoprotein …); assay: cell-based or functional assay

| Binder | TOPFLASH % Wnt Maxima |
| --- | --- |
| CM0126 (FZD Diabody-Fc-LRP Diabody; paratopes 5016; 2539, 2542) (bispecific antibody) chain 1: MNLLLILTFVAAAVAEFEVQLVESGGGLVQPGGSLRLSCAASGFNIHSSSIHWVRQAPGKGLEWVAATYSSFGSITYADSVKGRFTISADTSKNTAYLQMNSLRAEDTAVYYCARYHHPFGYALDYWGQGTLVTVSSGGGGSDIQMTQSPSSLSASVGDRVTITCRASQSVSSAVAWYQQKPGKAPKLLIYSASSLYSGVPSRFSGSRSGTDFTLTISSLQPEDFATYYCQQGVYLFTFGQGTKVEIKLEDKTHTKVEPKSSDKTHNCPPCPAPELLGGPSVFLFPPKPKDTLMISRTPEVTCVVVDVSHEDPEVKFNWYVDGVEVHNAKTKPREEQYNSTYRVVSVLTVLHQDWLNGKEYKCKVSNKALPAPIEKTISKAKGQPREPQVYTLPPIRELMTSNQVSLSCAVKGFYPSDIAVEWESNGQPENNYKTTPPVLDSDGSFFLVSKLTVDKSRWQQGNVFSCSVMHEALHNHYTQKSLSLSPGKSGSETPGTSESATPESGGGEVQLVESGGGLVQPGGSLRLSCAASGFNISSYYIHWVRQAPGKGLEWVASIYSSYGYTSYADSVKGRFTISADTSKNTAYLQMNSLRAEDTAVYYCARTVRGSKKPYFSGWAMDYWGQGTLVTVSSGGGGSDIQMTQSPSSLSASVGDRVTITCRASQSVSSAVAWYQQKPGKAPKLLIYSASSLYSGVPSRFSGSRSGTDFTLTISSLQPEDFATYYCQQYSWGPFTFGQGTKVEIK chain 2: MNLLLILTFVAAAVAEFEVQLVESGGGLVQPGGSLRLSCAASGFNIHSSSIHWVRQAPGKGLEWVAATYSSFGSITYADSVKGRFTISADTSKNTAYLQMNSLRAEDTAVYYCARYHHPFGYALDYWGQGTLVTVSSGGGGSDIQMTQSPSSLSASVGDRVTITCRASQSVSSAVAWYQQKPGKAPKLLIYSASSLYSGVPSRFSGSRSGTDFTLTISSLQPEDFATYYCQQGVYLFTFGQGTKVEIKLEDKTHTKVEPKTSDKTHTCPPCPAPELLGGPSVFLFPPKPKDTLMISRTPEVTCVVVDVSHEDPEVKFNWYVDGVEVHNAKTKPREEQYNSTYRVVSVLTVLHQDWLNGKEYKCKVSNKALPAPIEKTISKAKGQPREPMVFDLPPSREEMTKNQVSLWCMVKGFYPSDIAVEWESNGQPENNYKTTPPVLDSDGSFFLYSKLTVDKSRWQQGNVFSCSVMHEALHNHYTQKSLSLSPGKSGSETPGTSESATPESGGGEVQLVESGGGLVQPGGSLRLSCAASGFNISYSSIHWVRQAPGKGLEWVAYISSYYGYTYYADSVKGRFTISADTSKNTAYLQMNSLRAEDTAVYYCARAHYFPWAGAMDYWGQGTLVTVSSGGGGSDIQMTQSPSSLSASVGDRVTITCRASQSVSSAVAWYQQKPGKAPKLLIYSASSLYSGVPSRFSGSRSGTDFTLTISSLQPEDFATYYCQQYYWPITFGQGTKVEIK | 52 % Wnt Maxima |
| CT0001 (FZD IgG-LRP Diabody; paratopes 5016; 2539, 2542) (bispecific antibody) heavy 1: EVQLVESGGGLVQPGGSLRLSCAASGFNIHSSSIHWVRQAPGKGLEWVAATYSSFGSITYADSVKGRFTISADTSKNTAYLQMNSLRAEDTAVYYCARYHHPFGYALDYWGQGTLVTVSSASTKGPSVFPLAPSSKSTSGGTAALGCLVKDYFPEPVTVSWNSGALTSGVHTFPAVLQSSGLYSLSSVVTVPSSSLGTQTYICNVNHKPSNTKVDKKVEPKSCDKTHTCPPCPAPELLGGPSVFLFPPKPKDTLMISRTPEVTCVVVDVSHEDPEVKFNWYVDGVEVHNAKTKPREEQYNSTYRVVSVLTVLHQDWLNGKEYKCKVSNKALPAPIEKTISKAKGQPREPQVYTLPPIRELMTSNQVSLSCAVKGFYPSDIAVEWESNGQPENNYKTTPPVLDSDGSFFLVSKLTVDKSRWQQGNVFSCSVMHEALHNHYTQKSLSLSPGKSGSETPGTSESATPESGGGEVQLVESGGGLVQPGGSLRLSCAASGFNISSYYIHWVRQAPGKGLEWVASIYSSYGYTSYADSVKGRFTISADTSKNTAYLQMNSLRAEDTAVYYCARTVRGSKKPYFSGWAMDYWGQGTLVTVSSGGGGSDIQMTQSPSSLSASVGDRVTITCRASQSVSSAVAWYQQKPGKAPKLLIYSASSLYSGVPSRFSGSRSGTDFTLTISSLQPEDFATYYCQQYSWGPFTFGQGTKVEIK heavy 2: EVQLVESGGGLVQPGGSLRLSCAASGFNIHSSSIHWVRQAPGKGLEWVAATYSSFGSITYADSVKGRFTISADTSKNTAYLQMNSLRAEDTAVYYCARYHHPFGYALDYWGQGTLVTVSSASTKGPSVFPLAPSSKSTSGGTAALGCLVKDYFPEPVTVSWNSGALTSGVHTFPAVLQSSGLYSLSSVVTVPSSSLGTQTYICNVNHKPSNTKVDKKVEPKSCDKTHTCPPCPAPELLGGPSVFLFPPKPKDTLMISRTPEVTCVVVDVSHEDPEVKFNWYVDGVEVHNAKTKPREEQYNSTYRVVSVLTVLHQDWLNGKEYKCKVSNKALPAPIEKTISKAKGQPREPMVFDLPPSREEMTKNQVSLWCMVKGFYPSDIAVEWESNGQPENNYKTTPPVLDSDGSFFLYSKLTVDKSRWQQGNVFSCSVMHEALHNHYTQKSLSLSPGKSGSETPGTSESATPESGGGEVQLVESGGGLVQPGGSLRLSCAASGFNISYSSIHWVRQAPGKGLEWVAYISSYYGYTYYADSVKGRFTISADTSKNTAYLQMNSLRAEDTAVYYCARAHYFPWAGAMDYWGQGTLVTVSSGGGGSDIQMTQSPSSLSASVGDRVTITCRASQSVSSAVAWYQQKPGKAPKLLIYSASSLYSGVPSRFSGSRSGTDFTLTISSLQPEDFATYYCQQYYWPITFGQGTKVEIK light: DIQMTQSPSSLSASVGDRVTITCRASQSVSSAVAWYQQKPGKAPKLLIYSASSLYSGVPSRFSGSRSGTDFTLTISSLQPEDFATYYCQQGVYLFTFGQGTKVEIKRTVAAPSVFIFPPSDEQLKSGTASVVCLLNNFYPREAKVQWKVDNALQSGNSQESVTEQDSKDSTYSLSSTLTLSKADYEKHKVYACEVTHQGLSSPVTKSFNRGEC | 57 % Wnt Maxima |
| CT0003 (Table 5: FZD Diabody-Fc-LRP scFv; paratopes 5016; 2539, 2542) (bispecific antibody) chain 1: MNLLLILTFVAAAVAEFEVQLVESGGGLVQPGGSLRLSCAASGFNISSYYIHWVRQAPGKGLEWVASIYSSYGYTSYADSVKGRFTISADTSKNTAYLQMNSLRAEDTAVYYCARTVRGSKKPYFSGWAMDYWGQGTLVTVSSGGGGSDIQMTQSPSSLSASVGDRVTITCRASQSVSSAVAWYQQKPGKAPKLLIYSASSLYSGVPSRFSGSRSGTDFTLTISSLQPEDFATYYCQQYSWGPFTFGQGTKVEIKLEDKTHTKVEPKSSDKTHNCPPCPAPELLGGPSVFLFPPKPKDTLMISRTPEVTCVVVDVSHEDPEVKFNWYVDGVEVHNAKTKPREEQYNSTYRVVSVLTVLHQDWLNGKEYKCKVSNKALPAPIEKTISKAKGQPREPQVYTLPPIRELMTSNQVSLSCAVKGFYPSDIAVEWESNGQPENNYKTTPPVLDSDGSFFLVSKLTVDKSRWQQGNVFSCSVMHEALHNHYTQKSLSLSPGKSGSETPGTSESATPESGGGEVQLVESGGGLVQPGGSLRLSCAASGFNIHSSSIHWVRQAPGKGLEWVAATYSSFGSITYADSVKGRFTISADTSKNTAYLQMNSLRAEDTAVYYCARYHHPFGYALDYWGQGTLVTVSSGTTAASGSSGGSSSGADIQMTQSPSSLSASVGDRVTITCRASQSVSSAVAWYQQKPGKAPKLLIYSASSLYSGVPSRFSGSRSGTDFTLTISSLQPEDFATYYCQQGVYLFTFGQGTKVEIK chain 2: MNLLLILTFVAAAVAEFEVQLVESGGGLVQPGGSLRLSCAASGFNISYSSIHWVRQAPGKGLEWVAYISSYYGYTYYADSVKGRFTISADTSKNTAYLQMNSLRAEDTAVYYCARAHYFPWAGAMDYWGQGTLVTVSSGGGGDIQMTQSPSSLSASVGDRVTITCRASQSVSSAVAWYQQKPGKAPKLLIYSASSLYSGVPSRFSGSRSGTDFTLTISSLQPEDFATYYCQQYYWPITFGQGTKVEIKLEDKTHTKVEPKTSDKTHTCPPCPAPELLGGPSVFLFPPKPKDTLMISRTPEVTCVVVDVSHEDPEVKFNWYVDGVEVHNAKTKPREEQYNSTYRVVSVLTVLHQDWLNGKEYKCKVSNKALPAPIEKTISKAKGQPREPMVFDLPPSREEMTKNQVSLWCMVKGFYPSDIAVEWESNGQPENNYKTTPPVLDSDGSFFLYSKLTVDKSRWQQGNVFSCSVMHEALHNHYTQKSLSLSPGKSGSETPGTSESATPESGGGEVQLVESGGGLVQPGGSLRLSCAASGFNIHSSSIHWVRQAPGKGLEWVAATYSSFGSITYADSVKGRFTISADTSKNTAYLQMNSLRAEDTAVYYCARYHHPFGYALDYWGQGTLVTVSSGTTAASGSSGGSSSGADIQMTQSPSSLSASVGDRVTITCRASQSVSSAVAWYQQKPGKAPKLLIYSASSLYSGVPSRFSGSRSGTDFTLTISSLQPEDFATYYCQQGVYLFTFGQGTKVEIK | 42 % Wnt Maxima |
